# Laboratory results: publication PMC8041823, “Structural comparison of Acinetobacter baumannii β-ketoacyl-acyl carrier protein reductases in fatty acid and aryl polyene biosynthesis” (Scientific Reports, 2021)
# Molecular target: T1, Acinetobacter baumannii ApeQ (β-ketoacyl-ACP reductase of the aryl polyene biosynthesis gene cluster) (Acinetobacter baumannii (clinical CRAB …))
# T1 construct: ApeQ of A. baumannii, amplified from genomic DNA of the clinical carbapenem-resistant strain C1 with primers designed on the A. baumannii ACICU genome; NCBI ACC55845.1; Cloned NdeI/XhoI into pET28a; His-tag removed with thrombin; Residues of the thrombin site may be left at the N-terminus; also called AbApeQ; source: E. coli BL21 (DE3), purified (Chelating Sepharose, thrombin, Q-Sepharose anion …)
# Experiment: ITC; 2 mM holo ACP1 titrated into 0.1 mM reductase; 20 mM Tris pH 8, 100 mM NaCl, 2 mM NADPH; 25 °C; MicroCal 200
# Settings: both partners purified
binder,measurement,value
"holo ACP1 (acyl carrier protein 1 of the A. baumannii aryl polyene biosynthesis gene cluster) (natural protein, holo form (phosphopantetheine arm; made by co-expression with holo-ACP synthase AbAcpS); residue not stated) MSNLADELKQMIIDVLALEDITIADIDTEAPLFGEGLGLDSIDALELGLALKKRYNIHLNAESDETKQHFKSIQSLVALVEAQQKS",Kd,~80 µM
same,dH,3.05 kcal/mol
same,stoichiometry N,1.11
